Source: paper PMC10353453 (Molecular cell, 2022)

B1: human NADK2 (aa 61–442 with an N terminus His-tag) (enzyme, UniProt Q4G0N4 61-442, looked up)
chain: RADGGFRPSRVVVVAKTTRYEFEQQRYRYAELSEEDLKQLLALKGSSYSGLLERHHIHTKNVEHIIDSLRNEGIEVRLVKRREYDEETVRWADAVIAAGGDGTMLLAASKVLDRLKPVIGVNTDPERSEGHLCLPVRYTHSFPEALQKFYRGEFRWLWRQRIRLYLEGTGINPVPVDLHEQQLSLNQHNRALNIERAHDERSEASGPQLLPVRALNEVFIGESLSSRASYYEISVDDGPWEKQKSSGLNLCTGTGSKAWSFNINRVATQAVEDVLNIAKRQGNLSLPLNRELVEKVTNEYNESLLYSPEEPKILFSIREPIANRVFSSSRQRCFSSKVCVRSRCWDACMVVDGGTSFEFNDGAIASMMINKEDELRTVLLEQ
B2: NADK2 expressed in HEK293E cells (full-length human NADK2 cDNA with a C-terminal FLAG-tag) (enzyme, UniProt Q4G0N4 63-442, looked up)
chain: DGGFRPSRVVVVAKTTRYEFEQQRYRYAELSEEDLKQLLALKGSSYSGLLERHHIHTKNVEHIIDSLRNEGIEVRLVKRREYDEETVRWADAVIAAGGDGTMLLAASKVLDRLKPVIGVNTDPERSEGHLCLPVRYTHSFPEALQKFYRGEFRWLWRQRIRLYLEGTGINPVPVDLHEQQLSLNQHNRALNIERAHDERSEASGPQLLPVRALNEVFIGESLSSRASYYEISVDDGPWEKQKSSGLNLCTGTGSKAWSFNINRVATQAVEDVLNIAKRQGNLSLPLNRELVEKVTNEYNESLLYSPEEPKILFSIREPIANRVFSSSRQRCFSSKVCVRSRCWDACMVVDGGTSFEFNDGAIASMMINKEDELRTVLLEQ
B3: His-NADK2^V334R (enzyme, human, UniProt Q4G0N4 61-442, looked up)
chain: RADGGFRPSRVVVVAKTTRYEFEQQRYRYAELSEEDLKQLLALKGSSYSGLLERHHIHTKNVEHIIDSLRNEGIEVRLVKRREYDEETVRWADAVIAAGGDGTMLLAASKVLDRLKPVIGVNTDPERSEGHLCLPVRYTHSFPEALQKFYRGEFRWLWRQRIRLYLEGTGINPVPVDLHEQQLSLNQHNRALNIERAHDERSEASGPQLLPVRALNEVFIGESLSSRASYYEISVDDGPWEKQKSSGLNLCTGTGSKAWSFNINRVATQAVEDRLNIAKRQGNLSLPLNRELVEKVTNEYNESLLYSPEEPKILFSIREPIANRVFSSSRQRCFSSKVCVRSRCWDACMVVDGGTSFEFNDGAIASMMINKEDELRTVLLEQ
B4: His-NADK2^S188A (enzyme, human, UniProt Q4G0N4 61-442, looked up)
chain: RADGGFRPSRVVVVAKTTRYEFEQQRYRYAELSEEDLKQLLALKGSSYSGLLERHHIHTKNVEHIIDSLRNEGIEVRLVKRREYDEETVRWADAVIAAGGDGTMLLAASKVLDRLKPVIGVNTDPERAEGHLCLPVRYTHSFPEALQKFYRGEFRWLWRQRIRLYLEGTGINPVPVDLHEQQLSLNQHNRALNIERAHDERSEASGPQLLPVRALNEVFIGESLSSRASYYEISVDDGPWEKQKSSGLNLCTGTGSKAWSFNINRVATQAVEDVLNIAKRQGNLSLPLNRELVEKVTNEYNESLLYSPEEPKILFSIREPIANRVFSSSRQRCFSSKVCVRSRCWDACMVVDGGTSFEFNDGAIASMMINKEDELRTVLLEQ
B5: His-NADK2^R378Q (enzyme, human, UniProt Q4G0N4 61-442, looked up)
chain: RADGGFRPSRVVVVAKTTRYEFEQQRYRYAELSEEDLKQLLALKGSSYSGLLERHHIHTKNVEHIIDSLRNEGIEVRLVKRREYDEETVRWADAVIAAGGDGTMLLAASKVLDRLKPVIGVNTDPERSEGHLCLPVRYTHSFPEALQKFYRGEFRWLWRQRIRLYLEGTGINPVPVDLHEQQLSLNQHNRALNIERAHDERSEASGPQLLPVRALNEVFIGESLSSRASYYEISVDDGPWEKQKSSGLNLCTGTGSKAWSFNINRVATQAVEDVLNIAKRQGNLSLPLNRELVEKVTNEYNESLLYSPEEPKILFSIQEPIANRVFSSSRQRCFSSKVCVRSRCWDACMVVDGGTSFEFNDGAIASMMINKEDELRTVLLEQ
B6: His-NADK2^K304Q (enzyme, human, UniProt Q4G0N4 61-442, looked up)
chain: RADGGFRPSRVVVVAKTTRYEFEQQRYRYAELSEEDLKQLLALKGSSYSGLLERHHIHTKNVEHIIDSLRNEGIEVRLVKRREYDEETVRWADAVIAAGGDGTMLLAASKVLDRLKPVIGVNTDPERSEGHLCLPVRYTHSFPEALQKFYRGEFRWLWRQRIRLYLEGTGINPVPVDLHEQQLSLNQHNRALNIERAHDERSEASGPQLLPVRALNEVFIGESLSSRASYYEISVDDGPWEKQQSSGLNLCTGTGSKAWSFNINRVATQAVEDVLNIAKRQGNLSLPLNRELVEKVTNEYNESLLYSPEEPKILFSIREPIANRVFSSSRQRCFSSKVCVRSRCWDACMVVDGGTSFEFNDGAIASMMINKEDELRTVLLEQ
B7: His-NADK2^K76Q (enzyme, human, UniProt Q4G0N4 61-442, looked up)
chain: RADGGFRPSRVVVVAQTTRYEFEQQRYRYAELSEEDLKQLLALKGSSYSGLLERHHIHTKNVEHIIDSLRNEGIEVRLVKRREYDEETVRWADAVIAAGGDGTMLLAASKVLDRLKPVIGVNTDPERSEGHLCLPVRYTHSFPEALQKFYRGEFRWLWRQRIRLYLEGTGINPVPVDLHEQQLSLNQHNRALNIERAHDERSEASGPQLLPVRALNEVFIGESLSSRASYYEISVDDGPWEKQKSSGLNLCTGTGSKAWSFNINRVATQAVEDVLNIAKRQGNLSLPLNRELVEKVTNEYNESLLYSPEEPKILFSIREPIANRVFSSSRQRCFSSKVCVRSRCWDACMVVDGGTSFEFNDGAIASMMINKEDELRTVLLEQ
B8: His-NADK2^Δ231–266 (aa 61–442) (enzyme, human, UniProt Q4G0N4 61-442, looked up)
chain: RADGGFRPSRVVVVAKTTRYEFEQQRYRYAELSEEDLKQLLALKGSSYSGLLERHHIHTKNVEHIIDSLRNEGIEVRLVKRREYDEETVRWADAVIAAGGDGTMLLAASKVLDRLKPVIGVNTDPERSEGHLCLPVRYTHSFPEALQKFYRGEFRWLWRQRIRLYLEGTGPQLLPVRALNEVFIGESLSSRASYYEISVDDGPWEKQKSSGLNLCTGTGSKAWSFNINRVATQAVEDVLNIAKRQGNLSLPLNRELVEKVTNEYNESLLYSPEEPKILFSIREPIANRVFSSSRQRCFSSKVCVRSRCWDACMVVDGGTSFEFNDGAIASMMINKEDELRTVLLEQ
B9: His-NADK2^Δ78–114 (aa 61–442) (enzyme, human, UniProt Q4G0N4 61-442, looked up)
chain: RADGGFRPSRVVVVAKTHHIHTKNVEHIIDSLRNEGIEVRLVKRREYDEETVRWADAVIAAGGDGTMLLAASKVLDRLKPVIGVNTDPERSEGHLCLPVRYTHSFPEALQKFYRGEFRWLWRQRIRLYLEGTGINPVPVDLHEQQLSLNQHNRALNIERAHDERSEASGPQLLPVRALNEVFIGESLSSRASYYEISVDDGPWEKQKSSGLNLCTGTGSKAWSFNINRVATQAVEDVLNIAKRQGNLSLPLNRELVEKVTNEYNESLLYSPEEPKILFSIREPIANRVFSSSRQRCFSSKVCVRSRCWDACMVVDGGTSFEFNDGAIASMMINKEDELRTVLLEQ

Target: the molecule itself
Assay: SAXS

Stoichiometry N, 2:
B1

Target: the molecule itself
Assay: cross-linking

Stoichiometry N, 2:
B2

Target: the molecule itself
Assay: mass photometry

Stoichiometry N, 2:
B3
B4
B5
B6
B7
B8
B9
